Assay results as given in IntAct's records for PubMed 25803835.

B1: Serine/threonine-protein kinase TBK1 (Homo sapiens), Q9UHD2 (parent)
chain: MQSTSNHLWLLSDILGQGATANVFRGRHKKTGDLFAIKVFNNISFLRPVDVQMREFEVLKKLNHKNIVKLFAIEEETTTRHKVLIMEFCPCGSLYTVLEEPSNAYGLPESEFLIVLRDVVGGMNHLRENGIVHRDIKPGNIMRVIGEDGQSVYKLTDFGAARELEDDEQFVSLYGTEEYLHPDMYERAVLRKDHQKKYGATVDLWSIGVTFYHAATGSLPFRPFEGPRRNKEVMYKIITGKPSGAISGVQKAENGPIDWSGDMPVSCSLSRGLQVLLTPVLANILEADQEKCWGFDQFFAETSDILHRMVIHVFSLQQMTAHKIYIHSYNTATIFHELVYKQTKIISSNQELIYEGRRLVLEPGRLAQHFPKTTEENPIFVVSREPLNTIGLIYEKISLPKVHPRYDLDGDASMAKAITGVVCYACRIASTLLLYQELMRKGIRWLIELIKDDYNETVHKKTEVVITLDFCIRNIEKTVKVYEKLMKINLEAAELGEISDIHTKLLRLSSSQGTIETSLQDIDSRLSPGGSLADAWAHQEGTHPKDRNVEKLQVLLNCMTEIYYQFKKDKAERRLAYNEEQIHKFDKQKLYYHATKAMTHFTDECVKKYEAFLNKSEEWIRKMLHLRKQLLSLTNQCFDIEEEVSKYQEYTNELQETLPQKMFTASSGIKHTMTPIYPSSNTLVEMTLGMKKLKEEMEGVVKELAENNHILERFGSLTMDGGLRNVDCL
B2: Serine/threonine-protein kinase TBK1 (Homo sapiens), Q9UHD2 (parent)
chain: B1 chain
partner: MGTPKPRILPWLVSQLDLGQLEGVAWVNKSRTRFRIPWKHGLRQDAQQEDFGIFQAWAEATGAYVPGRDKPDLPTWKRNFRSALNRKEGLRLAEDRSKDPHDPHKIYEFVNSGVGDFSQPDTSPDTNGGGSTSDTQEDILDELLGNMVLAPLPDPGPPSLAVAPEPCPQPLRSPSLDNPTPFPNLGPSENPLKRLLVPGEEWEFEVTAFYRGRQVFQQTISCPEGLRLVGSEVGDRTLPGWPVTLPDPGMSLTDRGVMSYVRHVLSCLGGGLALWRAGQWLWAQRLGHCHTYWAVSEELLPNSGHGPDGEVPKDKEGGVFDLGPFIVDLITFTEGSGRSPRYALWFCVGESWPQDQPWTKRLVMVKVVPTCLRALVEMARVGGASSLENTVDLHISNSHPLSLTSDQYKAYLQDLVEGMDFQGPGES

Variants of: B1
Details: with optn_human OPTN

Variant | effect of a mutation on the interaction
M559R | disrupting interaction strength
R357Q | decreasing interaction strength
K38A | with no effect
R47H | increasing interaction strength
R308Q | with no effect

Variants of: B1
Details: with optn_human OPTN
Remark: another data set of the same source

Variant | effect of a mutation on the interaction
R357Q | disrupting interaction strength
E696K | disrupting interaction strength

Variants of: B2
Details: with irf3_human IRF3, Q14653

Variant | effect of a mutation on the interaction
R357Q | disrupting interaction strength
R308Q | decreasing interaction strength
M559R | disrupting interaction strength
E696K | decreasing interaction strength
R47H | increasing interaction strength
